Values belong to the molecule of their own block, whether it stands above or below them. Positions of bridges follow the written chain, without caps; N, C: chain ends. No end group written: not given here.
Assays:
[1] = target: adrenomedullin receptors in the lungs of dogs (dog); test: cell-based or functional assay
[2] = target: adrenomedullin receptors in the lungs of dogs (dog); test: competition: displacement of iodine-labelled hAM from dog lungs
[3] = target: T1, adrenomedullin receptors in the lungs of dogs (dog, UniProt A0A8I3NWR4 23-462; A0A8I3MWA8 233-365); test: as above
T1 construct: also called AM1 (CRLR+RAMP2) receptor
T1 sequence (chain, as listed by the source, chain 1 of 2): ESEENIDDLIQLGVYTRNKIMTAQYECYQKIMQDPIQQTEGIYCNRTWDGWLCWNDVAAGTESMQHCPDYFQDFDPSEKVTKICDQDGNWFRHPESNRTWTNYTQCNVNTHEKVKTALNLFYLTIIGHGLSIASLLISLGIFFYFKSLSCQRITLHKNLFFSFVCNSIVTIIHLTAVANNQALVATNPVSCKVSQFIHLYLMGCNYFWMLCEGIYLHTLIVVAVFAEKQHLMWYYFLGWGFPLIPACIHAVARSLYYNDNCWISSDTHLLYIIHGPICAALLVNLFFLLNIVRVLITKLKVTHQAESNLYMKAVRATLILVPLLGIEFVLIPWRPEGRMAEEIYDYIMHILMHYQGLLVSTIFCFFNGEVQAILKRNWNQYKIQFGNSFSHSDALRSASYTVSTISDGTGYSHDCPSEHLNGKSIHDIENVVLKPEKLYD
T1 sequence (chain, as listed by the source, chain 2 of 2): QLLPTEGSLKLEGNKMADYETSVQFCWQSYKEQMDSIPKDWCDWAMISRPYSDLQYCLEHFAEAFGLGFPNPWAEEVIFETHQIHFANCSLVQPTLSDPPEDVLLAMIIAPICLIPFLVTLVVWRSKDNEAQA

adrenomedullin receptors in the lungs of dogs (dog), sequence (chain, as listed by the source, chain 1 of 2): as the sequence (chain, as listed by the source, chain 1 of 2) above
adrenomedullin receptors in the lungs of dogs (dog), sequence (chain, as listed by the source, chain 2 of 2): as the sequence (chain, as listed by the source, chain 2 of 2) above

Molecule: 125I-rAM(1-50) (from UniProt P43145 94-143) (peptide)
- mean single-pass pulmonary extraction of 125I-rAM(1-50), dogs in vivo, baseline [1]: 36.4%
- mean tracer 125I-rAM(1-50) extraction during a single pulmonary transit time, dog in vivo, one typical experiment, control [1]: 30%

Molecule: CGRP (Phoenix Pharmaceuticals) (peptide)
- single-pass pulmonary extraction of 125I-rAM(1-50) after administration of CGRP (100 nmol i.v.) [1]: 40.6%
- single-pass pulmonary extraction of 125I-rAM(1-50), control before CGRP [1]: 44.6%

B2: N-terminal acetylated human adrenomedullin (peptide)
peptide: Ac-YRQSMNNFQGLRSFGCRFGTCTVQKLAHQIYQFTDKDKDNVAPRSKISPQGY-NH2
modifications: ends and bridges not checked
notes: also called N-Ac hAM; N-terminal acetylated AM
- IC50 [3]: 0.041 nM

Molecule: TQAQLLRVGCVLGTCQVQNLSHRLWQLMGPAGRQDSAPVDPSSPHSY (peptide, UniProt Q7Z4H4 101-147, looked up) [hAM2]
- IC50 [3]: 480 nM

B4: hAM2(16-47) (peptide, UniProt Q7Z4H4 116-147, looked up)
peptide: QVQNLSHRLWQLMGPAGRQDSAPVDPSSPHSY
modifications: ends and bridges not checked
notes: range 16-47; Numbering 16-47 is that of the mature AM2 peptide, not of the precursor entry
- IC50 [3]: 980 nM

Further lines, results first:

- mean extraction of 125I-rAM(1-50) in the same dog after injection of unlabelled rAM(1-50) [1]: 12%
- mean single-pass pulmonary extraction of 125I-rAM(1-50) after administration of unlabelled rAM(1-50) (100 nmol i.v.) [1]: 21.9%
Molecule: unlabelled rAM(1-50) (from UniProt P43145 94-143) (peptide)

- IC50 [2]: 440 nM
Molecule: hCGRP (from UniProt P06881 83-119) (peptide)

- IC50 [3]: 0.055 nM
B1: human adrenomedullin hAM(1-52), cyclic (peptide)
peptide: YRQSMNNFQGLRSFGCRFGTCTVQKLAHQIYQFTDKDKDNVAPRSKISPQGY-NH2
modifications: disulfide 16-21
notes: also called hAM (cyclic); cyclic hAM

- IC50 [3]: 34 nM
Molecule: SFGCRFGTCTVQKLAHQIYQFTDKDKDNVAPRSKISPQGY-NH2 (ends and bridges not checked) [hAM(13-52)]

- IC50 [3]: 810 nM
Molecule: TVQKLAHQIYQFTDKDKDNVAPRSKISPQGY-NH2 (also called C-terminal AM fragment) [hAM(22-52)]

- IC50 [3]: 7.1 nM
B3: linear human adrenomedullin hAM(1-52) (peptide)
peptide: YRQSMNNFQGLRSFGCRFGTCTVQKLAHQIYQFTDKDKDNVAPRSKISPQGY-NH2
modifications: cysteine pairing not given here
notes: also called hAM linear; linear hAM

— patent US20090028790A1 (INSTITUT DE CARDIOLOGIE DE MONTREAL, published 2009)
